Measurements from patent US20120321699A1 (published 2012).

Molecular target: HV00044 (6240 TZ5 140C) (HIV-1)
Test: SPR

B1: CH01 (antibody, V domains shown)
VH: EVQLVESGANVVRPGGSLRLSCKASGFIFENFGFSWVRQAPGKGLQWVAGLNWNGGDTRYADSVKGRFRMSRDNSRNFVYLDMDKVGVDDTAFYYCARGTDYTIDDAGIHYQGSGTFWYFDLWGRGTLVSVSS
VL: EIVLTQSPGTLSLSPGERATLSCRASHNVHPKYFAWYQQKPGQSPRLLIYGGSTRAAGIPGKFSGSGSGTDFTLTISRVDPEDFAVYYCQQYGGSPYTFGQGTKVEI
Work on B1 yielded a Kd of 300 nM.
